Assay results: paper PMC2199314 (The Journal of Cell Biology, 2001)

Target: taxol-stabilized bovine brain microtubules (bovine, UniProt Q6B856 1-445)

B1: Escherichia coli–purified Dam1p (natural protein, S. cerevisiae, UniProt P53267 1-343, looked up)
chain: MSEDKAKLGTTRSATEYRLSIGSAPTSRRSSMGESSSLMKFADQEGLTSSVGEYNENTIQQLLLPKIRELSDSIITLDSNFTRLNFIHESLADLNESLGSLLYGIMSNSWCVEFSQAPHDIQDDLIAIKQLKSLEDEKNNLVMELSNMERGIKRKKDEQGENDLAKASQNKQFNQPLFPSSQVRKYRSYDNRDKRKPSKIGNNLQVENEEDYEDDTSSEASFVLNPTNIGMSKSSQGHVTKTTRLNNNTNSKLRRKSILHTIRNSIASGADLPIENDNVVNLGDLHPNNRISLGSGAARVVNGPVTKNRNSMFSGRAERKPTESRHSVAKKTEKKINTRPPFR
**Q.** Which Kd does the source give for B1 here?
**A.** ~500 nM
